Measured values: patent WO2006046344A1 (dated 2006)

B1: boPrP-15 (scFv)
chain 1: QVQLVQSGAEVKKPGASVKVSCKASGYTFTSYGISWVRQAPGQGLEWMGWISAYNGNTNYAQKLQGRVTMTTDTSTSTAYMELRSLRSDDTAVYYCARYGGRIAAASYNWFDPWGQGTLAICPDSACLRVWVSWTVDHLVTVSS
chain 2: QSALTQPASVSGSPGQSITISCTGTSSDVGGYNYVSWYQQHPGKAPRLMIYDVSNRPSGVSNRFSGSKSGNTASLTISGLQSEDEADYYCSSYTSSSTLVFGTGTKLTVLG
B2: huPrP-39 (scFv, V domains shown)
VH: EVQLVQSGGGLVQPGRSLRLSCAASGFTFGDYAMSWVRQAPGKGPEWIATISSSGDILDYADSVRGRFSISRDNAQRSLHLQMTSLRPDDSAIYYCAREYFFSFDVWGRGTTVTVSS
VL: QSVLAQPPSLSVSPGQTARITCSGDGVGSGFVSWYQQRPGQSPSVVIYDDAKRPSGIPERFSGSNSGDTATLTISESRAVDEADYYCQTWDSRSPVFGGGTKVTVLG
B3: boPrP-20 (scFv, V domains shown)
VH: QVQLVQSGGGLVQPGRSLRLSCAASGFTFDDYAMHWVRQAPGKGLEWVSGISWNSGSIGYADSVKGRFTISRDNAKNSLYLQMNSLRAEDTALYYCAKQGDEAAAGTGFDYWGQGTLVTVSS
VL: QSVLTQPPSASAAPGQGVTISCSGSSSNIGTNTVAWYQHLPETAPKLLIYHDSQRPSRVPGRVSGSKSGTSASLAISRLQSDDEADYYCATWDDSLNGWVFGGGTKLTVLG
B4: boPrP-2 (scFv, V domains shown)
VH: QVQLVQSGGGLVQPGRSLRLSCAASGFTFDDYAMHWVRQAPGKGLEWVSGISWNSGSIGYADSVKGRFTISRDNAKNSLYLQMNSLRAEDTALYYCAKGGGSYYYFDYWGQGTLVTVSS
VL: QSVLTQPPSVSGAPGQRVSISCTGNRSNIGAGYDVHWYQQVPGMAPKLLIYGNTKRPSGVPDRFSGSKSGTSASLAITGLQAEDEADYYCQSFDNTLSDSRWVFGGGTKLTVLG
B5: huPrP-18 (scFv, V domains shown)
VH: QVQLVQSGAEVKKPGASVKVSCKASGYTFTSYPIHWVRQAPGQRLEWMGWLNPGTGVTKYSQNFQGRVTLTSDTSANTAYLELSSLRSEDTALYYCTRDPLDSRKNWFDPWGQGTLVTVSS
VL: SYVLTQPPSASGTPGQRVTISCSGSNSNIGTNFVYWYQQLPGTAPKLLIYRNNQRPSGVPDRFSGSKSGTSASLAISGLRSEDEADYYCAAWDDSLSGRVFGGGTQLTVLG

Each binder was assayed against human α form prion (human, UniProt P04156 90-230).

| Binder | Kd |
| --- | --- |
| B1 | 7.8 nM |
| B2 | 33 nM |
| B3 | 36 nM |
| B4 | 110 nM |
| B5 | 20 nM |

The binders below were run against bovine α form prion (bovine, UniProt P10279 102-241).

| Binder | Kd |
| --- | --- |
| B1 | 4.6 nM |
| B2 | 29 nM |
| B4 | 410 nM |
| B5 | 60 nM |
